Results: PMC9967645, “OAT3 Participates in Drug–Drug Interaction between Bentysrepinine and Entecavir through Interactions with M8—A Metabolite of Bentysrepinine—In Rats and Humans In Vitro” (Molecules, 2023)

Substrate: CN(C)CCOc1ccc(CC(NC(=O)c2ccccc2)C(=O)O)cc1
Assay: cells, lysate or membranes named
Details: other: hOAT3-HEK293 cells, Eadie–Hofstee plot, 2 to 1000 µM, 5 min; pH 7.4
Experimental: The hOAT1-HEK293, hOAT3-HEK293 and mock cells were cultured in Dulbecco modified Eagle medium (DMEM) containing 10% fetal bovine serum (FBS) and 1% penicillin/streptomycin in an atmosphere of 5% CO2 air at 37 °C. The HEK293 cells were plated on 24-well plates at a density of 5 × 10^5 cells/well. […] Uptake assay was initiated by adding 1 mL of the transporter buffer containing Y101, M8, ETV or probe substrate. Following incubation with gentle shaking, the uptake was terminated at designated time by removing the transporter buffer and washing cells three times with 1 mL of ice-cold HBSS. Next, substrates of Y101, M8, ETV, PAH and ES in cell monolayer were released by lysing the cells with 0.3 mL of 0.1% Triton X-100 for 2 h and determined by liquid chromatography–tandem mass spectrometry (LC–MS/MS). In the time-course uptake assay, Y101 (2.0 µM) and M8 (10 µM) in the presence or absence of PRO (100 µM) were measured in hOAT1-HEK293, hOAT3-HEK293 and mock cells. The concentration-dependent uptake of M8 was determined in hOAT3-HEK293 cells, and incubation time (5 min) was optimized. […] The uptake of ETV (10 µM) with or without Y101 or M8 was also measured in hOAT1-HEK293 and hOAT3-HEK293 cells, respectively. […] Protein concentrations were measured by the bicinchoninic acid procedure (Solarbio, Beijing, China) using bovine serum albumin as the standard. […]

B1: hOAT3 (Homo sapiens) (protein)
chain: MTFSEILDRVGSMGHFQFLHVAILGLPILNMANHNLLQIFTAATPVHHCRPPHNASTGPWVLPMGPNGKPERCLRFVHPPNASLPNDTQRAMEPCLDGWVYNSTKDSIVTEWDLVCNSNKLKEMAQSIFMAGILIGGLVLGDLSDRFGRRPILTCSYLLLAASGSGAAFSPTFPIYMVFRFLCGFGISGITLSTVILNVEWVPTRMRAIMSTALGYCYTFGQFILPGLAYAIPQWRWLQLTVSIPFFVFFLSSWWTPESIRWLVLSGKSSKALKILRRVAVFNGKKEEGERLSLEELKLNLQKEISLAKAKYTASDLFRIPMLRRMTFCLSLAWFATGFAYYSLAMGVEEFGVNLYILQIIFGGVDVPAKFITILSLSYLGRHTTQAAALLLAGGAILALTFVPLDLQTVRTVLAVFGKGCLSSSFSCLFLYTSELYPTVIRQTGMGVSNLWTRVGSMVSPLVKITGEVQPFIPNIIYGITALLGGSAALFLPETLNQPLPETIEDLENWSLRAKKPKQEPEVEKASQRIPLQPHGPGLGSS
  Km: 367 µM
  Vmax: 414 pmol/min/mg protein
